Data set [1] deals with T1, Aryl Alcohol Oxidase (AAOx) (Pleurotus eryngii, UniProt O94219).
T1 construct: gene aao; N-terminal His-tag, pET-15b, E. coli BL21-GOLD; FAD added during purification; IMAC and SEC
T1 sequence (O94219 22-593): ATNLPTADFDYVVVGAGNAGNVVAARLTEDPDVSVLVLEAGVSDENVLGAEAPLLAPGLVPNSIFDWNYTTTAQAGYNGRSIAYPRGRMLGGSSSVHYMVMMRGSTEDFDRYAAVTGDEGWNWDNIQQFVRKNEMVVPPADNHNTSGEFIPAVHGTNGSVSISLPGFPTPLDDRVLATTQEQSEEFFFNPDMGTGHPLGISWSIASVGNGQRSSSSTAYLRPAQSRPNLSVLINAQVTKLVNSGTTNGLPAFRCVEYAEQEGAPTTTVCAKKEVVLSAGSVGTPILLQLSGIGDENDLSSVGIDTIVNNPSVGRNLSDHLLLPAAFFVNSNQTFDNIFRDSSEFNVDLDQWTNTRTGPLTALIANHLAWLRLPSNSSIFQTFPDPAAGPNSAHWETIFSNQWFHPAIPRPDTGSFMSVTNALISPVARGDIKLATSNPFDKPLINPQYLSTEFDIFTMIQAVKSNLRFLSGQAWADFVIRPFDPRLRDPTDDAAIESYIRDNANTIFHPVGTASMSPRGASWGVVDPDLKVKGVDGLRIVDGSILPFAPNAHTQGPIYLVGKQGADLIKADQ
The data set is described as follows: absorbance of cinnamyl aldehyde at […] nm. It is filed as biochemical. The note with it: 5 nM enzyme, 250 µM substrate, pH 5.5-7.5, 10 mM ionic strength Tris/Bis-Tris, 30 mM NaCl.

Substrate in data set [2]: CCCC(=O)Oc1ccc2c(C)cc(=O)oc2c1
Nature of the data set: fluorescence of released 4-methylumbelliferone, initial rates, Michaelis-Menten fit. The data set is classed as biochemical, Geobacillus thermocatenulatus. Conditions: homogeneous enzyme, 0.5 µM, 24 mM Tris, 10 mM NaCl, pH 7.5, substrate solubility kept concentrations below the KM. The text has this:
fluorescence of released 4-methylumbelliferone, initial rates, Michaelis-Menten fit on BTL2 (Bacillus thermocatenulatus Lipase 2)

This is an account of results in article PMC12246476, “Enhancement of enzymatic activity by biomolecular condensates through pH buffering” (Nature Communications, 2025).

Consider `OC/C=C/c1ccccc1` [CAlc, Cinnamyl Alcohol], for which the “absorbance of cinnamyl aldehyde at 310 nm” value in data set [1] is listed as “measuring the rate of the oxidation reaction of CAlc to CAld catalyzed by AAOx”.

B1: BTL2 (Bacillus thermocatenulatus Lipase 2) (Geobacillus thermocatenulatus) (protein)
chain: ASPRANDAPIVLLHGFTGWGREEMLGFKYWGGVRGDIEQWLNDNGYRTYTLAVGPLSSNWDRACEAYAQLVGGTVDYGAAHAAKHGHARFGRTYPGLLPELKRGGRVHIIAHSQGGQTARMLVSLLENGSQEEREYAKAHNVSLSPLFEGGHHFVLSVTTIATPHDGTTLVNMVDFTDRFFDLQKAVLKAAAVASNVPYTSQVYDFKLDQWGLRRQPGESFDHYFERLKRSPVWTSTDTARYDLSIPGAEKLNQWVQASPNTYYLSFSTERTHRGALTGNYYPELGMNAFSAVVCAPFLGSYRNEALGIDDRWLENDGIVNTVSMNGPKRGSSDRIVPYDGTLKKGVWNDMGTCNVDHLEVIGVDPNPSFDIRAFYLRLAEQLASLRP
notes: N-terminal His-tag, pET-15b, E. coli BL21-GOLD; IMAC and SEC
As to B1, in data set [2], the Michaelis constant (Km) was found to be 713 ± 281 µM, the maximal velocity (Vmax) is 126 µM/min and the kcat stood at 4.3 ± 1.2 s⁻¹.
